# Reference: patent US10301203B2, “Chloroperoxidase-catalyzed degradation of pharmaceutical pollutants in wastewater” (THE FLORIDA INTERNATIONAL UNIVERSITY BOARD OF TRUSTEES, priority 2017, dated 2019)
# Substrate: NC(=O)N1c2ccccc2C=Cc2ccccc21
# Test: CPO-catalyzed degradation of carbamazepine, kinetic parameters (UV monitoring at 285 nm, CBZ concentration varied)
# Format: biochemical, Caldariomyces fumago
# Conditions: other: CBZ as substrate, 0.02 to 0.11 mM, CPO isolated from C. fumago (5 nM), 100 mM KH2PO4 buffer, 20 mM KCl, pH 2.75, H2O2 0.35 mM or 0.07 mM, absorbance at 285 nm, 0.1 to 0.2 mi
# Excerpt: Chloroperoxidase (CPO) is a heme-containing glycoprotein secreted by the fungus Caldariomyces fumago.
# The isolation of CPO proposed in this study was a modification of the protocol reported by Morris and Hager (1966), using acetone instead of ethanol as the fractionation solvent. CPO with Rz=1.45 was applied in all reactions (Rz is the purity standard, defined as A398/A280=1.44 for a pure enzyme). All solvents were HPLC grade or Optima® LC/MS grade, purchased from Thermo Fisher Scientific Inc. (Waltham, Mass., USA). Water was produced using a Milli-Q® Biocel™ Ultra-Pure water purification system equipped with 0.22 μM membrane filter cartridge (EMD Millipore, Billerica, Mass., USA), and an organic removal cartridge (Evoqua Water Technologies, Lowell, Mass., USA).
# The rate was calculated by monitoring absorbance at 285 nm from 0.1 to 0.2 min. The reaction was carried out in 100 mM KH2PO4 buffer with 20 mM KCl at pH 2.75, with the concentration of CBZ varying from 0.02 to 0.11 mM. UV monitoring was started immediately after adding 0.35 mM H2O2.
# All experiments were triplicated and data reported were mean values of three independent measurements with standard deviation.
# 1 min. after addition of 5 nM CPO, the 285 nm absorption decreased, and stopped […] at 4 min. The 285 nm wavelength was used to measure kinetic parameters of CBZ degradation catalyzed by CPO.
protein,measurement,value
"chloroperoxidase (CPO) (Leptoxyphium fumago) (protein, heme-containing glycoprotein secreted by the fungus Caldariomyces fumago; made in house; host or cells: Caldariomyces fumago (natural producer, not recombinant)) QEPGSGIGYPYDNNTLPYVAPGPTDSRAPCPALNALANHGYIPHDGRAISRETLQNAFLNHMGIANSVIELALTNAFVVCEYVTGSDCGDSLVNLTLLAEPHAFEHDHSFSRKDYKQGVANSNDFIDNRNFDAETFQTSLDVVAGKTHFDYADMNEIRLQRESLSNELDFPGWFTESKPIQNVESGFIFALVSDFNLPDNDENPLVRIDWWKYWFTNESFPYHLGWHPPSPAREIEFVTSASSAVLAASVTSTPSSLPSGAIGPGAEAVPLSFASTMTPFLLATNAPYYAQDPTLGPND",Km,73.35 µM
